Blank lines part the entries; values can stand above or below the substance they belong to.
Legend:
Assay in all cases: FRET or BRET; acceptor-bleaching FRET at kinetochores of transfected human cells (HeLa, HEp-2, U2OS), in vivo or in situ; donor EGFP, acceptor mCherry; E_FRET of a bleached region compared with EVAR of an unbleached region
[1] = biological target: CENP-B-mCherry (UniProt P07199)
[2] = biological target: mCherry-CENP-S (UniProt Q8N2Z9)
[3] = biological target: CENP-S-mCherry (UniProt Q8N2Z9)
[4] = biological target: mCherry-H3.1 (human) (UniProt P68431)
[5] = biological target: mCherry-CENP-B (UniProt P07199)
[6] = biological target: EGFP-CENP-U (UniProt Q71F23)
Sequence of UniProt Q71F23 (Q71F23 whole entry): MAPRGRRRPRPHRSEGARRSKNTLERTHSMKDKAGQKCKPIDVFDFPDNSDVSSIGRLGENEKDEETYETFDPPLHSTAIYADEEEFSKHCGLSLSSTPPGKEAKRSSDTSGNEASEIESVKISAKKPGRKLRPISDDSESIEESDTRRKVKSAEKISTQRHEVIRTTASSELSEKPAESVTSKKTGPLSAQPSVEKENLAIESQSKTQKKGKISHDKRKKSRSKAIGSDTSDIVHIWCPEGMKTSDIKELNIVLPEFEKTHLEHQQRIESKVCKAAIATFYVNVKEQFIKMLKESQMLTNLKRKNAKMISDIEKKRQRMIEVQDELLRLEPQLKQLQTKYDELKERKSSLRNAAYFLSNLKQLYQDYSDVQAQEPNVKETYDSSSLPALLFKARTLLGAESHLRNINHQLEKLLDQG

mean E FRET % [1]: 4.37%
ΔE % [1]: 3.6%
Substance: EGFP-CENP-W (from UniProt Q5EE01 1-88) (natural protein)

mean E FRET % [2]: 4%
ΔE % [2]: 4.78%
mean E FRET % [3]: 3.49%
ΔE % [3]: 3.91%
Substance: CENP-M-EGFP (from UniProt Q9NSP4 1-180) (natural protein)

mean E FRET % [4]: 3.7%
ΔE % [4]: 5.8%
mean E FRET % [5]: 5.07%
ΔE % [5]: 4.4%
Substance: CENP-W-EGFP (from UniProt Q5EE01 1-88) (natural protein)

mean E FRET % [6]: 6.08%
ΔE % [6]: 7.86%
Substance: CENP-M-mCherry (from UniProt Q9NSP4 1-180) (natural protein)
